Experimental findings from article PMC10950897, “VCF1 is a p97/VCP cofactor promoting recognition of ubiquitylated p97-UFD1-NPL4 substrates” (Nature Communications, 2024) are described below.

For data set [1], the system named is NPL4, U2OS/Ub(G76V)-GFP cells. The data set can be described thus: Immunoblot of siRNA knockdown efficiency. The format is cell-based, human. The method, then: All siRNAs (Sigma) were used at 20 nM and transfected with Lipofectamine RNAiMAX reagent (Thermo) according to manufacturer’s instructions. The following siRNA oligonucleotides were used: Non-targeting control (CTRL): 5′-[…]-3′; VCF1(#1): 5’-[…]-3’; VCF1(#2): 5’-[…]-3’; p47: 5’-[…]-3’; NPL4: 5’-[…]-3’; FAF1: 5′-[…]-3′; p97: Dharmacon SmartPool (D-008727).
Immunoblotting was performed as previously described. Immunoprecipitation (IP) of HA-tagged proteins was performed using Anti-HA Affinity matrix (Roche) under denaturing conditions, unless otherwise stated. GFP-trap and […] Fab-trap agarose (Chromotek) were used according to manufacturer’s instructions. Cell lysis was performed using RIPA buffer (140 mM NaCl; 10 mM Tris-HCl, pH 8.0; 0.1% sodium deoxycholate; 1% Triton X-100; 0.1% SDS; 1 mM EDTA; 0.5 mM EGTA) or EBC buffer (50 mM Tris, pH 7.5; 150 mM NaCl; 1 mM EDTA; 0.5% NP-40, 1 mM DTT). IPs were washed in non-denaturing buffer (50 mM Tris-HCl, pH 7.5; 150 mM NaCl; 0.5 mM EDTA). Cell lysis and IP under partially denaturing conditions were performed using denaturing buffer (20 mM Tris-HCl, pH 7.5; 50 mM NaCl; 0.5% sodium deoxycholate; 0.5% NP-40; 0.5% SDS; 1 mM EDTA). […]
(In general: In western blotting, separated proteins are transferred to a membrane and probed.)

For another data set, the system named is Ub(G76V)-GFP, U2OS cells. The data set can be described thus: QIBC of Ub(G76V)-GFP after siRNA. The format is cell-based, human. The note with it: siRNA 20 nM, QIBC >10,000 cells. As for the experimental part: (§1) U2OS (catalog no. HTB-96) cells were obtained from ATCC. HEK293-EBNA1-6E cells were a kind gift from Yves Durocher (National Research Council Canada, Montreal, Canada). All mammalian cell lines were cultured under standard conditions at 37 °C and 5% CO2 in DMEM (Thermo) supplemented with 10% FBS (v/v) and penicillin-streptomycin (Thermo). Recombination cloning-compatible U2OS cells were generated using the Flp-In T-Rex Core Kit (Thermo) according to the manufacturer’s instructions and maintained under selection using Blasticidin (Invivogen) and Zeocin (Thermo). To generate cell lines stably expressing GFP-VCF1, U2OS Flp-In T-Rex cells (Thermo) were co-transfected with GFP-VCF1 constructs and pOG44 (Thermo) plasmids, followed by selection with Hygromycin (Invitrogen). Single clones were carefully screened for uniform expression of ectopic GFP-VCF1 at low levels and maintained under selection with Blasticidin and Hygromycin. To induce GFP-VCF1 expression, cells were treated with Doxycycline (DOX) (0.5 µg/ml) for 16 h. U2OS cell lines stably expressing Ub(G76V)-GFP or Ub(G76V)-GFP-20AA were described previously. A U2OS cell line stably expressing Ub(G76V)-GFP-NES was generated under G418 (Invivogen) selection. […]
(§2) Mammalian cells grown on coverslips were fixed in formalin buffer (VWR) for 15 min at room temperature (RT). […] Quantitative image-based cytometry (QIBC) was performed as described. […]

For data set [2], the system named is Ub(G76V)-GFP-NES, U2OS cells. The data set can be described thus: Imaging of Ub(G76V)-GFP-NES after siRNA or p97 inhibitor. The format is cell-based, human. As to conditions: siRNA 20 nM or p97i (NMS-873) 2 h. As for the experimental part: as §1, §2
The subject of data set [3] is p97-UFD1-NPL4 binding to K48-Ub2-7. The data set can be described thus: FLAG IP: p97-UFD1-NPL4 binding to K48-linked ubiquitin chains, purified proteins. The format is biochemical, human. As to conditions: high protein amounts, mild buffer. The method, then:
All in vitro binding experiments were performed in EBC or RIPA buffer as indicated. Recombinant Biotin-tagged K48-linked poly-ubiquitin chains (2−7) and K48-linked poly-ubiquitin chains (2−16) were purchased from R&D Systems and Enzo Life Science, respectively. Recombinant proteins were incubated with Strep-Tactin Sepharose (IBA), Glutathione agarose (Gold Biotechnology) or […] Fab-trap agarose (ChromoTek) overnight on an end-over-end rotator at 4 °C, washed six times with EBC or RIPA buffer, and resuspended in 2×Laemmli sample buffer. For p97, VCF1 or p47 pulldowns, antibodies (0.5 µg/sample) were coupled to agarose beads, incubated with recombinant proteins or cell lysates and washed with the indicated buffer. To assess p97-UFD1-NPL4 binding to ubiquitylated proteins in total cell extracts, U2OS cells were lysed in EBC buffer supplemented with protease and phosphatase inhibitors, sonicated and incubated on ice for 10 min. Lysates were cleared by centrifugation for 10 min at 16,100 × g. Cell lysate (40 µg) was added to recombinant proteins in EBC buffer, incubated overnight on the rotator with […] Fab-trap agarose (ChromoTek), and beads were washed six times.

In the next data set the test system is p97 ATPase. The data set can be described thus: ATPase assay. The format is biochemical, human. The note with it: p97 25 nM, ATP 375 μM. The method, then: For ATPase assays, 1 ml of 5x assay buffer (250 mM Tris, pH 7.4; 100 mM MgCl2; 5 mM EDTA) was mixed with 3 ml water, 5 μl 0.5 M TCEP and 5 μl 10% Triton X. To 40 ul of this assay buffer, recombinant proteins were added, mixed and incubated for 30 min. Final protein concentrations were as follows: p97 (25 nM), VCF1 (range of 0, 0.025, 1, 10 and 25 nM). The reactions were started by adding 10 μl ATP (final concentration of 375 μM) to the 40 μl reactions in a 96 well plate. After 35 min at room temperature, reactions were stopped by adding 50 μl BIOMOL Green reagent (Enzo Life Sciences). Absorbance at 635 nm was measured after 4 min and the relative ATPase activity calculated. Reactions were performed in duplicates and repeated three times.

The target in a further data set is T1, p97 (His6-p97 WT) (Homo sapiens, UniProt P55072).
T1 construct: Coomassie Blue staining of full-length and truncated His6-p97 proteins purified from E; made in house; host or cells: E. coli BL21(DE3)
The data set can be described thus: SPR: binding to immobilized His6-p97 WT. As to conditions: N167A mutants; in vitro binding experiments and SPR, up to 300 nM (peptides) or 100 nM (full-length).

The test system of a further data set is p97. The data set can be described thus: GFP IP of GFP-VCF1 alanine mutants from U2OS cells. The format is binding, human. The note with it: full-length GFP-VCF1, U2OS. The method, then: (§3) Immunoblotting was performed as previously described. Immunoprecipitation (IP) of HA-tagged proteins was performed using Anti-HA Affinity matrix (Roche) under denaturing conditions, unless otherwise stated. GFP-trap and […] Fab-trap agarose (Chromotek) were used according to manufacturer’s instructions. Cell lysis was performed using RIPA buffer (140 mM NaCl; 10 mM Tris-HCl, pH 8.0; 0.1% sodium deoxycholate; 1% Triton X-100; 0.1% SDS; 1 mM EDTA; 0.5 mM EGTA) or EBC buffer (50 mM Tris, pH 7.5; 150 mM NaCl; 1 mM EDTA; 0.5% NP-40, 1 mM DTT). IPs were washed in non-denaturing buffer (50 mM Tris-HCl, pH 7.5; 150 mM NaCl; 0.5 mM EDTA). Cell lysis and IP under partially denaturing conditions were performed using denaturing buffer (20 mM Tris-HCl, pH 7.5; 50 mM NaCl; 0.5% sodium deoxycholate; 0.5% NP-40; 0.5% SDS; 1 mM EDTA). All lysis and wash buffers were supplemented with 1 mM fresh PMSF Protease Inhibitor (Thermo), complete EDTA-free protease inhibitor Cocktail Tablets (Roche), 1.25 mM N-ethylmaleimide (Sigma) and 50 µM PR-619 (Calbiochem).

For data set [4], the system named is GFP-VCF1 WT / N167A interactome, U2OS cells. The data set can be described thus: GFP IP mass spectrometry, comparison of VCF1 WT and N167A interactomes (WT/N167A). As to conditions: stably expressed GFP-VCF1, MS interactome. The data set is classed as binding, human. As for the experimental part:
U2OS (catalog no. HTB-96) cells were obtained from ATCC. HEK293-EBNA1-6E cells were a kind gift from Yves Durocher (National Research Council Canada, Montreal, Canada). All mammalian cell lines were cultured under standard conditions at 37 °C and 5% CO2 in DMEM (Thermo) supplemented with 10% FBS (v/v) and penicillin-streptomycin (Thermo). Recombination cloning-compatible U2OS cells were generated using the Flp-In T-Rex Core Kit (Thermo) according to the manufacturer’s instructions and maintained under selection using Blasticidin (Invivogen) and Zeocin (Thermo). To generate cell lines stably expressing GFP-VCF1, U2OS Flp-In T-Rex cells (Thermo) were co-transfected with GFP-VCF1 constructs and pOG44 (Thermo) plasmids, followed by selection with Hygromycin (Invitrogen). Single clones were carefully screened for uniform expression of ectopic GFP-VCF1 at low levels and maintained under selection with Blasticidin and Hygromycin. To induce GFP-VCF1 expression, cells were treated with Doxycycline (DOX) (0.5 µg/ml) for 16 h. U2OS cell lines stably expressing Ub(G76V)-GFP or Ub(G76V)-GFP-20AA were described previously. A U2OS cell line stably expressing Ub(G76V)-GFP-NES was generated under G418 (Invivogen) selection. Clones with low baseline GFP expression were visually screened for low basal GFP expression. All cell lines used in this study were regularly tested negative for mycoplasma infection and were not authenticated.
as §3
GFP-Trap agarose (Chromotek) pulldowns were subjected to partial on-bead digestion for peptide elution, by addition of 100 µl of elution buffer (50 mM Tris, pH 7.5; 2 M urea; 2 mM DTT; 20 µg/ml trypsin) and incubation at 37 °C for 30 min. To carry out alkylation, 25 mM CAA was added to the samples, which were then left to digest overnight at room temperature. Digestion was halted by introducing 1% TFA. Purification and desalting of peptides were done using SDB-RPS StageTips. This process required preparing two layers of SDB-RPS with 100 µl of wash buffer (0.2% TFA in H2O), onto which the peptides were loaded. After centrifugation for 5 min at 500 × g, peptides were washed using 150 µl wash buffer, eluted with 50 µl elution buffer (80% ACN; 1% ammonia) and vacuum-dried.
Liquid chromatography-mass spectrometry (LC-MS) analysis was conducted using an EASY-nLC-1200 system (Thermo Fisher Scientific), coupled with a timsTOF Pro spectrometer and a nano-electrospray ion source (Bruker Daltonik). […]

T1 sequence (P55072 whole entry, the tested form may be a part): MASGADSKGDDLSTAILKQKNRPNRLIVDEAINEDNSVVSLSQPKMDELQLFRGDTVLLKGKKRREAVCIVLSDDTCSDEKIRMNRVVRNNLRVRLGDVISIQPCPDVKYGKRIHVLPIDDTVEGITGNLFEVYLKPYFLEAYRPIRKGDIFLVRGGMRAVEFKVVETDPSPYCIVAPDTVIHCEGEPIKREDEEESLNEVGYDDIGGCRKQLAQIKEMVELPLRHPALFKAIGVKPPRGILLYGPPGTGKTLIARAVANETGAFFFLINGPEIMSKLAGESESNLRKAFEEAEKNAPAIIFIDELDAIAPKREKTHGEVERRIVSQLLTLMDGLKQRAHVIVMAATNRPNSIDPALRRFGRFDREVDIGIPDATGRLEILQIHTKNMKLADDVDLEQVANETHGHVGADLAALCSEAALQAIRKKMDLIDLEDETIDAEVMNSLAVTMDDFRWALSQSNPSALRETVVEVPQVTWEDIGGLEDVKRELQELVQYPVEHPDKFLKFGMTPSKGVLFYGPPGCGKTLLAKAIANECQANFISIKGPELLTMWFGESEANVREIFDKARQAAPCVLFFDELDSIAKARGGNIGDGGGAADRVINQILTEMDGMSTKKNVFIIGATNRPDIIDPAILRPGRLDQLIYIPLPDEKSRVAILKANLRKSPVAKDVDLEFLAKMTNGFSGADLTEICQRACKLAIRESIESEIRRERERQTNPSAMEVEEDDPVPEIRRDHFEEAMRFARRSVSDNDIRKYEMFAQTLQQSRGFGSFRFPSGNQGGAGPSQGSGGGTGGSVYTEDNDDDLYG

Turning to “5’-CACGCCUAAUCCUGUUGACAA-3’ [NPL4 siRNA]”, the “reduction in NPL4 abundance” value in data set [1] is on record as ~ 50%. Also, the “effect on Ub(G76V)-GFP level” value with Ub(G76V)-GFP, U2OS cells is recorded as “increased Ub(G76V)-GFP abundance as expected”.

Regarding `Cc1cc(OCc2nnc(SC3CCCC3)n2-c2cccnc2)ccc1-c1ccc(S(C)(=O)=O)cc1` [NMS-873], in data set [2], the “effect on Ub(G76V)-GFP-NES” value is on record as “strong Ub(G76V)-GFP-NES accumulation”.

Turning to “VCF1 N167A: full-length VCF1 with N167A point mutation in VRM”, the “residual binding of N167A mutant to p97” value in data set [3] is recorded as “very weak residual binding to p97”. The “relative ATPase activity” value was found to be 1.034 in the data set with p97 ATPase (0.025 nM, replicate 1); 0.974 with p97 ATPase (0.025 nM, replicate 2); 1.059 with p97 ATPase (0.025 nM, replicate 3); 1.009 with p97 ATPase (1 nM, replicate 1); 1.013 with p97 ATPase (1 nM, replicate 2); 1.024 with p97 ATPase (1 nM, replicate 3). Moreover, the “relative ATPase activity” value in the data set on p97 ATPase (10 nM, replicate 1) worked out at 1.046; in the data set on p97 ATPase (10 nM, replicate 2), 0.967; in the data set on p97 ATPase (10 nM, replicate 3) it was 0.99. For the same compound, the “binding to p97 WT (in words)” value with p97 (His6-p97 WT) is reported as “abrogated binding to p97”. Also, the “effect of alanine scan on p97 binding” value in the data set with p97 is given as “essential for VCF1 binding to p97”. Moreover, the “p97 binding of N167A vs WT” value in data set [4] is listed as “strong loss of p97 binding”.
